Assay results taken from the supplement of paper PMC9233669.
Fewer inactive variants are shown than the library holds.

How the values were obtained:
[1] = test system: biotinyl-Trp-oxazolone; test: self-aminoacylation, catalytic enhancement (BWO) (fold over background); higher = more active; k-Seq, kA / k0A0; sequences stand for … in GGGAAUGGAUCCACAUCUACGAAUUC…UUCACUGCAGACUUGACGAAGCUG
How it was run: (§1)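 Working in 50 μL HEPES/NaCl/KCl/MgCl2/CaCl2 buffer with 5% acetonitrile at pH 6.9–7.0, mutagenized RNA pools (0.43 μM; 21-nt variable region) were reacted with 2–1250 μM of each biotinyl-aminoacyl-oxazolone for 90 minutes at room temperature. Streptavidin capture followed, with quantification by triplicate qPCR and Illumina sequencing. Catalytic enhancement is reported as median kA over the uncatalyzed rate, the low-activity peak of a bimodal Gaussian fit to the data.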

[2] = test system: biotinyl-Phe-oxazolone; test: self-aminoacylation, catalytic enhancement (BFO) (fold over background); higher = more active; k-Seq, kA / k0A0; sequences stand for … in GGGAAUGGAUCCACAUCUACGAAUUC…UUCACUGCAGACUUGACGAAGCUG
How it was run: as §1

[3] = test system: biotinyl-Met-oxazolone; test: self-aminoacylation, catalytic enhancement (BMO) (fold over background); higher = more active; k-Seq, kA / k0A0; sequences stand for … in GGGAAUGGAUCCACAUCUACGAAUUC…UUCACUGCAGACUUGACGAAGCUG
How it was run: as §1

[4] = test system: biotinyl-Leu-oxazolone; test: self-aminoacylation, catalytic enhancement (BLO) (fold over background); higher = more active; k-Seq, kA / k0A0; sequences stand for … in GGGAAUGGAUCCACAUCUACGAAUUC…UUCACUGCAGACUUGACGAAGCUG
How it was run: as §1

Row | Sequence | self-aminoacylation [1] | self-aminoacylation [2] | self-aminoacylation [3] | self-aminoacylation [4]
1 | AACUCUGCUAAUAGUCGCAAG [Fam3.1 aminoacylation ribozyme variant] | 5.56 | 16.4 | 2.46 | 
2 | AAGAAUGCUAAUAGUCGCAAG [Fam3.1 aminoacylation ribozyme variant] | 3.69 | 12.5 | 2.19 | 
3 | AAGACUGCUAAUAGUCGCAAG [Fam3.1 aminoacylation ribozyme variant] | 4.56 | 18.5 | 2.04 | 
4 | AAGAUUGUUAAUAGUCGCAAG [Fam3.1 aminoacylation ribozyme variant] | 2.65 | 2.81 | 2.14 | 
5 | AAGCUUGCUAAUAGCCGCAAG [Fam3.1 aminoacylation ribozyme variant] | 3.08 | 3.2 | 2.25 | 2.58
6 | AAGCUUGCUAAUAGUCGCAGG [Fam3.1 aminoacylation ribozyme variant] | 2.15 | 7.7 |  | 2.14
7 | AAGCUUGGUAAUAGUCGCAAG [Fam3.1 aminoacylation ribozyme variant] | 2.68 | 2.69 | 2.46 | 2.52
8 | AAGUGUGCUAAUAGUCGCCAG [Fam3.1 aminoacylation ribozyme variant] | 2.33 | 2.38 |  | 2.2
9 | AAGUUUGCCAAUAGUCGCACG [Fam3.1 aminoacylation ribozyme variant] |  |  | 2.3 | 2.05
10 | AAGUUUGCUAAUAGUCGCGUG [Fam3.1 aminoacylation ribozyme variant] | 2.15 | 8.13 | 2.33 | 2.15
11 | AAUACCCUGGUCAUCGAGUGG [Fam2.1 aminoacylation ribozyme variant] | 3.39 | 7.18 | 2.49 | 2.81
12 | AAUACCCUGGUCCUCGAGUGA [Fam2.1 aminoacylation ribozyme variant] | 3.22 | 9.54 | 3.08 | 3.33
13 | AUAACCCUGGUCAUCGUGUGA [Fam2.1 aminoacylation ribozyme variant] | 3.32 | 15.2 | 3.15 | 3.53
14 | AUACACCUAGGUCAUCGAGUG [Fam2.2 aminoacylation ribozyme variant] | 2.4 | 2.81 | 2.4 | 2.87
15 | AUUAACCUGGCCAUCGAGUGA [Fam2.1 aminoacylation ribozyme variant] | 2.78 |  | 2.01 | 2.11
16 | AUUACACUGGUCAUCAAGUGA [Fam2.1 aminoacylation ribozyme variant] | 3.18 | 3.52 | 2.7 | 2.31
17 | AUUACCCAGGUCAUCGUGUGA [Fam2.1 aminoacylation ribozyme variant] | 4.27 | 21.4 | 3.58 | 3.86
18 | AUUACCCUCGUCAUGGAGUGA [Fam2.1 aminoacylation ribozyme variant] | 2.5 | 8.82 | 2.81 | 3.02
19 | AUUACCCUCGUCGUCGAGUGA [Fam2.1 aminoacylation ribozyme variant] | 2.11 | 3.84 |  | 2.04
20 | AUUACCCUGGGCUUCGAGUGA [Fam2.1 aminoacylation ribozyme variant] | 2.03 |  | 2.01 | 
21 | AUUACCCUGGUCAUCCAGAGA [Fam2.1 aminoacylation ribozyme variant] |  | 2.38 |  | 2.03
22 | AUUACCCUGGUCAUCGAGGGG [Fam2.1 aminoacylation ribozyme variant] | 2.23 | 2.86 | 2.75 | 2.42

Row | Sequence | self-aminoacylation [1] | self-aminoacylation [2] | self-aminoacylation [3] | self-aminoacylation [4]
23 | AUUACCCUGGUCCUCGAGUGG [Fam2.1 aminoacylation ribozyme variant] |  | 2.88 | 2.1 | 
24 | AUUACCCUGGUCGUCCAGUGA [Fam2.1 aminoacylation ribozyme variant] | 3.21 | 11.1 | 2.68 | 2.88
25 | AUUACCCUGGUCUGCGAGUGA [Fam2.1 aminoacylation ribozyme variant] | 2.62 | 9.18 | 2.15 | 2.72
26 | AUUACUCUGGUCAUCAAGUGA [Fam2.1 aminoacylation ribozyme variant] | 3.07 | 4.38 | 2.47 | 2.29
27 | AUUCACCUAGAUAAUCGGGUG [Fam2.2 aminoacylation ribozyme variant] |  | 12.9 | 2.25 | 2.79
28 | AUUCACCUAGGUCCUCGGGAG [Fam2.2 aminoacylation ribozyme variant] |  | 2.83 |  | 2.11
29 | AUUCACUUAGCUCAUCGGGUG [Fam2.2 aminoacylation ribozyme variant] |  | 4.96 |  | 2.03
30 | AUUCUCCUAGGUCAUAGGGUG [Fam2.2 aminoacylation ribozyme variant] |  | 8.67 | 2.33 | 2.94
31 | CCACACUUCAAGCAGUCGCUC [Fam1B.1 aminoacylation ribozyme variant] |  | 4.31 |  | 2.06
32 | CCACUCUUCAAGCAAUCGGGC [Fam1B.1 aminoacylation ribozyme variant] |  |  |  | 2.21
33 | CCAGGCUUCAAGCAAUCGGUC [Fam1B.1 aminoacylation ribozyme variant] | 40.8 | 83.5 |  | 2.42
34 | CCGCACUUCAAACAAUCGGUC [Fam1B.1 aminoacylation ribozyme variant] | 74.3 | 157 |  | 3.41
35 | CCUCUUCAAACAAUCGGUCUG [Fam1A.1 aminoacylation ribozyme variant] | 38.6 | 85.8 |  | 2.36
36 | CGACUUCAAACAAUCGGUGUG [Fam1A.1 aminoacylation ribozyme variant] | 9.56 | 10.9 |  | 2.54
37 | CUACCUCAAACAAUCGGCCUG [Fam1A.1 aminoacylation ribozyme variant] | 5.05 | 3.13 |  | 2.11
38 | CUACCUCAAACAUUCGGUCUG [Fam1A.1 aminoacylation ribozyme variant] | 3.08 | 10.3 |  | 2.13
39 | CUACUUCAAACAAUCGAUGUG [Fam1A.1 aminoacylation ribozyme variant] |  | 3.31 | 2.24 | 
40 | CUACUUCAAAGAAUCGGCCUG [Fam1A.1 aminoacylation ribozyme variant] | 8.54 | 6.89 |  | 2
41 | CUGCUUCAAACAAUCGGUCUC [Fam1A.1 aminoacylation ribozyme variant] | 46 | 107 |  | 2.47
42 | GCACUCUUCAAGCAAUCGGUC [Fam1B.1 aminoacylation ribozyme variant] | 5.27 | 6.58 |  | 2.07
43 | UCAGACUUCAAGCAAUCGGUC [Fam1B.1 aminoacylation ribozyme variant] | 37.2 | 63.8 |  | 2.62
44 | UUACUUCAAACAAUCGGUCGG [Fam1A.1 aminoacylation ribozyme variant] | 14.5 | 18.1 |  | 2.1
